Experimental findings from patent US20220411516A1 (Amgen, published 2022) are described below.

The experiment has as its target T1, EGFRvIII (Epidermal Growth Factor Receptor Variant III) (human, UniProt P00533 298-1210).
T1 construct: also called Human EFGRvIII; de2-7EGFR
In words: IHC staining, titration of the primary antibody (5.5, 2.75, 1.375 µg/ml).

B1: EGFRvIII antibody 1 (antibody, mouse IgG1, kappa, V domains shown)
VH: QVQLVESGGGVVQPGRSLRLSCAASGFTFSSYGMHWVRQAPGKGLEWVAVIWYDGSNKYYVDSVKGRFTISRDNSKNTLYLQMNSLRAEDTAVYYCARDGWQQLAPFDYWGQGTLVTVSA
VL: not shown
notes: also called first antibody; primary antibody
Turning to B1, the binding result was “binds”.
